Where a chain is given by its changes, count along the chain named. Names and notes keep the numbering of the source.
Tests used:
Human NT-3 = molecular target: T1, Human NT-3 (human, UniProt P20783 139-257); test: SPR, Biacore 8K, binder captured on Protein A chip, ligand as analyte
T1 construct: mature; also called hNT-3
T1 sequence (looked up): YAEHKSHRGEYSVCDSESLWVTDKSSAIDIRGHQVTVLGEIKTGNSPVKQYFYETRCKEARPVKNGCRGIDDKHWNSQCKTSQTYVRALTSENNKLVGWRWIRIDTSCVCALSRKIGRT

Human BDNF = molecular target: T2, Human BDNF (human, UniProt P23560 129-247); test: as above
T2 construct: mature; also called hBDNF
T2 sequence (looked up): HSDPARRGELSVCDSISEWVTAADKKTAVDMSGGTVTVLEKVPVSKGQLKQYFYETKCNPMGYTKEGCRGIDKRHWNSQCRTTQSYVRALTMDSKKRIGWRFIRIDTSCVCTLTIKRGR

Human NT-4 = molecular target: T3, Human NT-4 (human, UniProt P34130 81-210); test: as above
T3 construct: mature; also called hNT-4
T3 sequence (looked up): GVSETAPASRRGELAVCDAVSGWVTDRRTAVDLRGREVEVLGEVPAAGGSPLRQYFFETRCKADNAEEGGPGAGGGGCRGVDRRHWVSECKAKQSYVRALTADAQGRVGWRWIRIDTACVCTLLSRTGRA

Human NGF [1] = molecular target: T4, Human NGF (human, UniProt P01138 122-241); test: cell-based or functional assay
Human NGF [2] = molecular target: T4, Human NGF; test: SPR, Biacore 8K, binder captured on Protein A chip, ligand as analyte
Procedure: (§1) Binding affinity of fusion proteins to human and rat NGF was assessed using Biacore 8K (Cytiva). Briefly, Protein A Sensor Chip (Cytiva) was docked into Biacore 8K, equilibrated for 30′ at RT and then Running Buffer (10 mM HEPES pH7.4 150 mM NaCl 3 mM EDTA and 0.005% Tween20) was applied to the SPR chip surface.
(§2) PetML119var was diluted into running buffer at 6 nM concentration. These were immobilised using 90 sec association at 10 uL/min as capturing step, followed by injection of running buffer to remove any unbound product.

Human proNGF [3] = molecular target: T5, Human proNGF (human, UniProt P01138 19-241); test: as above
T5 construct: This is the precursor form with the pro-peptide; also called h-proNGF; the pro-peptide

[4] = molecular target: NGF (species not stated) (Homo sapiens (Human)) (UniProt P01138); test: cell-based or functional assay
Human NGF (human) = Human NGF (human) (UniProt P01138); test: cell-based or functional assay
Human proNGF [5] = molecular target: T5, Human proNGF; test: SPR, Biacore 8K, binder captured on Protein A chip, ligand as analyte; remark: listed apart in the source
Procedure: as §1, §2

T5 sequence (P01138 19-241): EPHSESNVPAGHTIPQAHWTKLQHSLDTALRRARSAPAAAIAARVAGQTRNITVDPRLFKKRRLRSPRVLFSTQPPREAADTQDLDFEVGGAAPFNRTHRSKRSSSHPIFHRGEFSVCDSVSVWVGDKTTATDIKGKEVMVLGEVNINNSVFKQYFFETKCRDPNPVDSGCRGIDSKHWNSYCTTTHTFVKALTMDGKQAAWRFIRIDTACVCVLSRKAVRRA
Chain of Human NGF (human) (P01138 122-241): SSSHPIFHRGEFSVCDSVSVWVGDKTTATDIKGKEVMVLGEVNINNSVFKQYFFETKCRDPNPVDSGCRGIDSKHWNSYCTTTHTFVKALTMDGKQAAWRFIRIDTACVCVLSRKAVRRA
T4 sequence (P01138 122-241): as above

B1: PetML119-S109Y (Canine p75NTR ECD S109Y-canine IgGB wt Fc) (Fc fusion)
chain: KEACPTGLYTHSGECCKACNLGEGVAQPCGANQTVCEPCLDSVTFSDVVSATEPCKPCTECVGLQSMSAPCVEADDAVCRCAYGYYQDETTGRCEACRVCEAGSGLVFYCQDRQNTVCEECPDGTYSDEANHVDPCLPCTVCEDTERQLRECTRWADAECEEIPGRGGGGRENGRVPRPPDCPKCPAPEMLGGPSVFIFPPKPKDTLLIARTPEVTCVVVDLDPEDPEVQISWFVDGKQMQTAKTQPREEQFNGTYRVVSVLPIGHQDWLKGKQFTCKVNNKALPSPIERTISKARGQAHQPSVYVLPPSREELSKNTVSLTCLIKDFFPPDIDVEWQSNGQQEPESKYRTTPPQLDEDGSYFLYSKLSVDKSRWQRGDTFICAVMHEALHNHYTQKSLSHSPGK
notes: Signal peptide left out as for PetML119; If the listing carries them, the end of the range is 426
Kd (Human NT-3): 8.3 nM | Kd (Human BDNF): 16.7 nM | Kd (Human NT-4): 12 nM | IC50 (nM), inhibition of NGF-dependent TF-1 cell proliferation (Human NGF [1]): 0.17 nM | ICMAX (%), inhibition of NGF-dependent TF-1 cell proliferation (Human NGF [1]): 88.5%

B2: PetML119-V133R (Canine p75NTR ECD V133R-canine IgGB wt Fc) (Fc fusion)
chain: B1 chain with Y109S, V133R
notes: Signal peptide left out as for PetML119
Kd (Human NT-3): 7.2 nM | Kd (Human BDNF): 42.3 nM | Kd (Human NT-4): 8.3 nM

B3: PetML119-D134L (Canine p75NTR ECD D134L-canine IgGB wt Fc) (Fc fusion)
chain: B1 chain with Y109S, D134L
notes: Signal peptide left out as for PetML119; also called D134L mutant
Kd (Human NT-3): 8.3 nM | Kd (Human BDNF): 26.7 nM | Kd (Human NT-4): 101 nM | fold reduced affinity relative to PetML119wt (Human NGF [2]): 20 ×

B4: PetML119-E75T (Canine p75NTR ECD E75T-canine IgGB wt Fc) (Fc fusion)
chain: B1 chain with D75T, Y109S
notes: The signal peptide (first 19 residues) is left out as for PetML119
Kd (Human NT-3): 5.1 nM | Kd (Human BDNF): 15.4 nM | Kd (Human NT-4): 98.5 nM | fold reduced affinity relative to PetML119wt (Human NGF [2]): 40 ×

B5: PetML119-S109H (Canine p75NTR ECD S109H-canine IgGB wt Fc) (Fc fusion)
chain: B1 chain with Y109H
Kd (Human NT-3): 7.9 nM | Kd (Human BDNF): 16.2 nM | Kd (Human NT-4): 9.1 nM | IC50 (nM), inhibition of NGF-dependent TF-1 cell proliferation (Human NGF [1]): 2.15 nM | ICMAX (%), inhibition of NGF-dependent TF-1 cell proliferation (Human NGF [1]): 93.5%

B6: Bedinvetmab (antibody, V domains shown)
VH: EVQLVESGGDLVKPGGSLRLSCVASGFTFSSHGMHWVRQSPGKGLQWVAVINSGGSSTYYTDAVKGRFTISRDNAKNTVYLQMNSLRAEDTAMYYCAKESVGGWEQLVGPHFDYWGQGTLVIVSS
VL: QSVLTQPTSVSGSLGQRVTISCSGSTNNIGILGASWYQLFPGKAPKLLVYGNGNRPSGVPDRFSGADSGDSVTLTITGLQAEDEADYYCQSFDTTLGAHVFGGGTHLTVL
Kd (Human proNGF [3]): 0.0018 nM | Bottom (%), best-fit, PathHunter TrkA activation assay with NGF at 2 nM [4]: 5.35% | IC50 (nM), PathHunter TrkA activation assay with NGF at 2 nM [4]: 4.24 nM | Top (%), best-fit, PathHunter TrkA activation assay with NGF at 2 nM [4]: 123% | TrkA inhibition, PathHunter TrkA activation assay with NGF at 2 nM [4]: 100% | IC50 (nM), inhibition of NGF-dependent TF-1 cell proliferation (Human NGF (human)): 0.89 nM | IC Max, inhibition of NGF-dependent TF-1 cell proliferation (Human NGF (human)): 100 | ICMAX (%), inhibition of NGF-dependent TF-1 cell proliferation (Human NGF (human)): 96.8%

B7: PetML119 (Canine p75NTR ECD-canine IgGB wt Fc protein fusion) (Fc fusion)
chain: KEACPTGLYTHSGECCKACNLGEGVAQPCGANQTVCEPCLDSVTFSDVVSATEPCKPCTECVGLQSMSAPCVEADDAVCRCAYGYYQDETTGRCEACRVCEAGSGLVFSCQDRQNTVCEECPDGTYSDEANHVDPCLPCTVCEDTERQLRECTRWADAECEEIPGGGGRENGRVPRPPDCPKCPAPEMLGGPSVFIFPPKPKDTLLIARTPEVTCVVVDLDPEDPEVQISWFVDGKQMQTAKTQPREEQFNGTYRVVSVLPIGHQDWLKGKQFTCKVNNKALPSPIERTISKARGQAHQPSVYVLPPSREELSKNTVSLTCLIKDFFPPDIDVEWQSNGQQEPESKYRTTPPQLDEDGSYFLYSKLSVDKSRWQRGDTFICAVMHEALHNHYTQKSLSHSPGK
notes: Made in CHO cells; also called PetML119wt; p75NTR-Fc
Kd (Human NT-3): 4.9 nM | Kd (Human BDNF): 14.4 nM | Kd (Human NT-4): 7.2 nM | Kd (Human proNGF [3]): 0.0019 nM | fold higher affinity for proNGF than for mature NGF (Human proNGF [5]): 171 ×

From patent US20260234233A1 (PETMEDIX, published 2026)
